The record followed here is paper doi:10.1101/2021.03.12.434960.

Chain of K420C (human KIF5C aa 1-416, C-terminal mScarlet-StrepII) (O60282 1-416, stated change not applied): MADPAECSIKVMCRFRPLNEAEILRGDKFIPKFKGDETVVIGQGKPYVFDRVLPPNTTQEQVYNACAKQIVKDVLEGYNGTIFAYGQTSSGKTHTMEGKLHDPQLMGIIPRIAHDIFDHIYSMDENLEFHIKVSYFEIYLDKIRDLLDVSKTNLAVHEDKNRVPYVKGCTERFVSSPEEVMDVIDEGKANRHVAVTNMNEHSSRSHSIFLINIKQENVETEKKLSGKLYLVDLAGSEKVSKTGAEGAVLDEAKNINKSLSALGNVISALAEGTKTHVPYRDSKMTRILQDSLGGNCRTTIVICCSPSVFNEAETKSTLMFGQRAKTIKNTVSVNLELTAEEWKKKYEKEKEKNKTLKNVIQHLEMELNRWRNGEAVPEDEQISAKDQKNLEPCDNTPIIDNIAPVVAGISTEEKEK
Chain of K420A (human KIF5A aa 1-416, C-terminal mScarlet-StrepII) (Q12840 1-416, stated change not applied): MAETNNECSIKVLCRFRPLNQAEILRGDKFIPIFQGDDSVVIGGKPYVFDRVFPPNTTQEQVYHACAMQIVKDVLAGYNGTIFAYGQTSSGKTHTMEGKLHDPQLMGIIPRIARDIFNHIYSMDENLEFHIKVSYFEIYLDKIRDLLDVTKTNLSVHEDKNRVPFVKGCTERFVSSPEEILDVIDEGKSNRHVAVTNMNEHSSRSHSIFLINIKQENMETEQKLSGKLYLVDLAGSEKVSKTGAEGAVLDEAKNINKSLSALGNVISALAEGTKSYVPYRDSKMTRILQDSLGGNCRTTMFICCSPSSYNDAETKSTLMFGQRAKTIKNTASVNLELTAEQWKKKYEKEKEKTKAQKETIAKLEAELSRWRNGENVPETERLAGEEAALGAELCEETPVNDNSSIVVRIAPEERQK
Chain of full-length human KIF5C, C-terminal mScarlet-StrepII (O60282 whole entry): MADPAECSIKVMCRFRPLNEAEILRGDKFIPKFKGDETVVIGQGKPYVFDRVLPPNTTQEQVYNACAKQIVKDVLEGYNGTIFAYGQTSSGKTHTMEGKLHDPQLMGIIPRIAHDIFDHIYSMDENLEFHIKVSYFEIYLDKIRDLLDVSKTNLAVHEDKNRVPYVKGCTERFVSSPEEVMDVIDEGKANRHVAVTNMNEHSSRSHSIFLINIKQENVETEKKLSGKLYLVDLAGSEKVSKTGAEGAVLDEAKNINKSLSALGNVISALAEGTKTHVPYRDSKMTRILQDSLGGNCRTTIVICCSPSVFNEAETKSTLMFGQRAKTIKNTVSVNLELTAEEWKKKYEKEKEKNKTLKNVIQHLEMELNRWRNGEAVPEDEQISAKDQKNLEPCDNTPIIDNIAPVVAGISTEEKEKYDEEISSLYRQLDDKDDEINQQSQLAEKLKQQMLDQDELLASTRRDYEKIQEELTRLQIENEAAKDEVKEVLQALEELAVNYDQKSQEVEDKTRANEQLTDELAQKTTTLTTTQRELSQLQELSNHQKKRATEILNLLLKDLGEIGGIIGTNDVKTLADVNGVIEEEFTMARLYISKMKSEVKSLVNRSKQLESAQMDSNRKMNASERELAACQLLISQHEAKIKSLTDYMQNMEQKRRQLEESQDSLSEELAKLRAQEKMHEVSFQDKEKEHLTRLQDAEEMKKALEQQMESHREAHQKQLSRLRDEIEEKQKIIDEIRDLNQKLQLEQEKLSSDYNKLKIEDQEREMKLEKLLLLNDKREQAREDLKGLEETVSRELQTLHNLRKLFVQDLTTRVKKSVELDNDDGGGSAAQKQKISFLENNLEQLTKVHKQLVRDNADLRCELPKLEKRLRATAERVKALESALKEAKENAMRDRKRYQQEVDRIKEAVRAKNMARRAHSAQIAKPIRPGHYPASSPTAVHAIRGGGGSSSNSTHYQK
Chain of full-length human KIF5A, C-terminal mScarlet-StrepII (Q12840 whole entry): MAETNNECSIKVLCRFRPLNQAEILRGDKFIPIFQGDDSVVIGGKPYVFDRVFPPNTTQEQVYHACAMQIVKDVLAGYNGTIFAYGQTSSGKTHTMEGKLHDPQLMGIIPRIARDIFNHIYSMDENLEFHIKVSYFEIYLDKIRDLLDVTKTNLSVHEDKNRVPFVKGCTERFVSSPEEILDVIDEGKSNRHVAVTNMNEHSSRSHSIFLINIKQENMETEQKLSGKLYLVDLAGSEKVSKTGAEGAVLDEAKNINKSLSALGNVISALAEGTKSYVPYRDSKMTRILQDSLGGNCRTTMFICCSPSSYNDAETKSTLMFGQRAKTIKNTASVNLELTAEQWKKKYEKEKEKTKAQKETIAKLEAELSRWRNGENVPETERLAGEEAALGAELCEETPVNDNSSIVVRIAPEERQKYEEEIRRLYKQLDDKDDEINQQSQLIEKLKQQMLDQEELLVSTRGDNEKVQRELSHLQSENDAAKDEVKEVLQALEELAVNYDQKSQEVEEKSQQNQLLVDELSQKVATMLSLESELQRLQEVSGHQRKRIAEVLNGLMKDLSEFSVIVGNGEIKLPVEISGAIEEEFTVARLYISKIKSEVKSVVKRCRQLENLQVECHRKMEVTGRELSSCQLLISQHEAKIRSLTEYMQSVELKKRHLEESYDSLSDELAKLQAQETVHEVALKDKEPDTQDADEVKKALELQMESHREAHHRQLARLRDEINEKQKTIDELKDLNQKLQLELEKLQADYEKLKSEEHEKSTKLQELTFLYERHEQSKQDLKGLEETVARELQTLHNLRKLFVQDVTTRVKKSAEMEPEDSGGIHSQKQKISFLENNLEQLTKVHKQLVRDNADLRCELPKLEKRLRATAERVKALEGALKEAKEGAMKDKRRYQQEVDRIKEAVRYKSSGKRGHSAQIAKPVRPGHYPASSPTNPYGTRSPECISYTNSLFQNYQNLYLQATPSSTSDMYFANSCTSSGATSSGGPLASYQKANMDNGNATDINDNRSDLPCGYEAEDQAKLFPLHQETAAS

The target in the assay is taxol-stabilised microtubules of porcine brain tubulin (pig (porcine brain)) (UniProt P02550). Briefly: single-molecule TIRF microscopy on surface-bound microtubules.
Turning to “K420A (human KIF5A aa 1-416, C-terminal mScarlet-StrepII) (from UniProt Q12840 1-416) (domain or fragment)”, the landing rate was 162 /μm/s/μM. Regarding “K420B (human KIF5B aa 1-420, C-terminal mScarlet-StrepII) (from UniProt P33176 1-420) (domain or fragment)”, the landing rate is 146 /μm/s/μM. As to “K420C (human KIF5C aa 1-416, C-terminal mScarlet-StrepII) (from UniProt O60282 1-416) (domain or fragment)”, the landing rate is 147 /μm/s/μM. As for “KIF5A-KLC1 tetramer (from UniProt Q12840;Q07866) (complex)”, the landing rate was 0.1 /μm/s/μM. In the case of “KIF5B-E178A, C-terminal mScarlet-StrepII (from UniProt P33176 1-963) (natural protein)” it was 8.1 /μm/s/μM. “KIF5B-H129A, C-terminal mScarlet-StrepII (from UniProt P33176 1-963) (natural protein)”: the landing rate was 4.4 /μm/s/μM. With “KIF5B-IAK/AAA, C-terminal mScarlet-StrepII (from UniProt P33176 1-963) (natural protein)” the figure was 4.1 /μm/s/μM; with “KIF5B-KLC1 tetramer (from UniProt P33176;Q07866) (complex)”, 0.06 /μm/s/μM.

Consider “KIF5B-Δhinge (Δ505-610), C-terminal mScarlet-StrepII (from UniProt P33176 1-963) (natural protein)”, for which the landing rate is 3.6 /μm/s/μM. For the substance “KIF5C-KLC1 tetramer (from UniProt O60282;Q07866) (complex)”, the landing rate was 0.06 /μm/s/μM.

In the case of “full-length human KIF5A, C-terminal mScarlet-StrepII (from UniProt Q12840 1-1032) (natural protein)”, the landing rate is 0.69 /μm/s/μM. As for “full-length human KIF5B, C-terminal mScarlet-StrepII (from UniProt P33176 1-963) (natural protein)”, the landing rate is 0.08 /μm/s/μM. Consider “full-length human KIF5C, C-terminal mScarlet-StrepII (from UniProt O60282 1-957) (natural protein)”, for which the landing rate was 0.1 /μm/s/μM.
